Measurements as given in EP2272524A2.

How the values were obtained:
[1] = biological target: human Y1 receptor (human) (UniProt P25929); test: cell-based or functional assay
[2] = biological target: human Y4 receptor (human) (UniProt P50391); test: cell-based or functional assay
[3] = biological target: human Y5 receptor (human) (UniProt Q15761); test: competition binding, displacement of 125I-NPY, COS-7 cells with human Y5
[4] = biological target: human Y2 receptor (human) (UniProt P49146); test: competition binding, displacement of 125I-PYY, COS-7 cells with human Y2
[5] = biological target: human Y2 receptor (human) (UniProt P49146); test: cell-based or functional assay
[6] = biological target: human Y5 receptor (human) (UniProt Q15761); test: cell-based or functional assay
[7] = biological target: human Y4 receptor (human) (UniProt P50391); test: competition binding, displacement of 125I-PP, COS-7 cells with human Y4

Chain of UniProt Q15761 (Q15761 whole entry): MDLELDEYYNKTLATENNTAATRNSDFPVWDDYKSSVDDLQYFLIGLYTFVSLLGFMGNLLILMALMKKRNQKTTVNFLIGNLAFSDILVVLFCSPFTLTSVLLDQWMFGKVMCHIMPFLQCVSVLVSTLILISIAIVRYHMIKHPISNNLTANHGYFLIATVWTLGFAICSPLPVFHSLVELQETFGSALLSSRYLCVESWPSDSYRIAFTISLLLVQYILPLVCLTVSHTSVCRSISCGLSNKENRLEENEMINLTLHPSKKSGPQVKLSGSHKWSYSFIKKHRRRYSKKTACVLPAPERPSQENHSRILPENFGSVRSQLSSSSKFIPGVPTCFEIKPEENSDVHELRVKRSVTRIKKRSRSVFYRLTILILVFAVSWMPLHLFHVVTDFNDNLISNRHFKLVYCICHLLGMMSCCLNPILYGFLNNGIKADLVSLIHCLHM
Chain of UniProt P50391 (P50391 whole entry): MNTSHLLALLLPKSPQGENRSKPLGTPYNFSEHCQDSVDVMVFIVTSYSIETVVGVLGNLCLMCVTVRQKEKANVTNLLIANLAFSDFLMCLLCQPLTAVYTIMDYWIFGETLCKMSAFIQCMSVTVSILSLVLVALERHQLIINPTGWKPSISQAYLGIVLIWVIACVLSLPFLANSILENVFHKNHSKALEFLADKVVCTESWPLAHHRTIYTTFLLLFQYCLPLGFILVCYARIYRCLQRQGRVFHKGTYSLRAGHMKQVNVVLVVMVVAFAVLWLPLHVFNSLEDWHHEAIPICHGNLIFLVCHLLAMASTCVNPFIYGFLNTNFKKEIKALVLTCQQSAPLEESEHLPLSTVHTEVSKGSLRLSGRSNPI
Chain of UniProt P25929 (P25929 whole entry): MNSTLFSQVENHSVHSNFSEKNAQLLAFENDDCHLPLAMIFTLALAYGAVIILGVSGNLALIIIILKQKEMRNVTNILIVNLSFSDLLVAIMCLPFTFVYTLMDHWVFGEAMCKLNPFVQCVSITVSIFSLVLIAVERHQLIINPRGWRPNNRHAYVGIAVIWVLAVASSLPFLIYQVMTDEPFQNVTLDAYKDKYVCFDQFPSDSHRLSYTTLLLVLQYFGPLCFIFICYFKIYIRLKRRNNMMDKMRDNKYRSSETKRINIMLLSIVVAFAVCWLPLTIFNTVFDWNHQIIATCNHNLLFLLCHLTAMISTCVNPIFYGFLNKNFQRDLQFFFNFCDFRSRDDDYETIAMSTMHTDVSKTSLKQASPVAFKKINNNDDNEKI
Chain of UniProt P49146 (P49146 whole entry): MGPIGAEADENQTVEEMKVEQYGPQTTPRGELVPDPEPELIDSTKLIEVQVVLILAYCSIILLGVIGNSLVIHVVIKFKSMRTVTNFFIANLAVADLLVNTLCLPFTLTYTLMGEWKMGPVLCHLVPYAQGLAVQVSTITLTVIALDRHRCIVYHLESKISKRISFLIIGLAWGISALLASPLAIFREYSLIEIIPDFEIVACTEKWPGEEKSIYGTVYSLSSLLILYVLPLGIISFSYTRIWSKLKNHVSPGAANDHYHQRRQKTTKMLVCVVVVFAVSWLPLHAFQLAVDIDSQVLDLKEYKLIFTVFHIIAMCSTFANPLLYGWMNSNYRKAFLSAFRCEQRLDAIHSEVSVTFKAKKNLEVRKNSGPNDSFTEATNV

Substance | EC50, inositol phosphate turnover (potency assay) [1] [nM] | EC50, inositol phosphate turnover (potency assay) [2] [nM] | IC50 [3] [nM] | IC50 [4] [nM] | EC50, inositol phosphate turnover (potency assay) [5] [nM] | EC50, inositol phosphate turnover (potency assay) [6] [nM] | IC50 [7] [nM]
[Cys2,D-Cys27]PYY (peptide) | > 1000 | > 1000 | – | – | – | – | –
[Lys4,Gln34]PP (peptide) | 38 | 64 | 0.87 | 0.21 | 0.17 | 3.8 | 6
[Cys2,D-Cys27]PYY2-36 (peptide) | > 1000 | > 1000 | 36 | 0.6 | 1.9 | – | 300
